B1: POU domain, class 6, transcription factor 2, residues 609 to 663; numbered along this chain, P78424 (parent)
chain: KRRTSFTPQALEILNAHFEKNTHPSGQEMTEIAEKLNYDREVVRVWFCNKRQALK

The source of these data is the Human Domainome abundance scans (Beltran et al. 2025).

± gives the uncertainty stated by the source.

Variants of B1 are the subject of the series. Nature of the series: abundance fitness (aPCA) (normalised: wild type 0, dead -1); higher = more abundant; growth selection in yeast, the domain comes from the species named. Conditions: Homo sapiens.
Regarding KRRTSFTPQALEILNAHFEKNTAPSGQEMTEIAEKLNYDREVVRVWFCNKRQALK [H23A], the abundance fitness is -0.062 ± 0.094. For KRRTSFTPQALEILNAHFEKNTNPSGQEMTEIAEKLNYDREVVRVWFCNKRQALK [H23N] the value was -0.027 ± 0.16. As to KRRTSFTPQALEILNAHFEKNTFPSGQEMTEIAEKLNYDREVVRVWFCNKRQALK [H23F], the abundance fitness was -0.096 ± 0.14. Under KRRTSFTPQALEILNAHFEKNTQPSGQEMTEIAEKLNYDREVVRVWFCNKRQALK [H23Q] stands -0.029 ± 0.13; under KRRTSFTPQALEILNAHFEKNTRPSGQEMTEIAEKLNYDREVVRVWFCNKRQALK [H23R], 0.011 ± 0.07; under KRRTSFTPQALEILNAHFEKNTKPSGQEMTEIAEKLNYDREVVRVWFCNKRQALK [H23K], -0.034 ± 0.12. Under KRRTSFTPQALEILNAHFEKNTCPSGQEMTEIAEKLNYDREVVRVWFCNKRQALK [H23C] stands 0.018 ± 0.089; under KRRTSFTPQALEILNAHFEKNTWPSGQEMTEIAEKLNYDREVVRVWFCNKRQALK [H23W], -0.124 ± 0.11; under KRRTSFTPQALEILNAHFEKNTYPSGQEMTEIAEKLNYDREVVRVWFCNKRQALK [H23Y], -0.257 ± 0.15. Under KRRTSFTPQALEILNAHFEKNTIPSGQEMTEIAEKLNYDREVVRVWFCNKRQALK [H23I] stands -0.169 ± 0.2. Consider KRRTSFTPQALEILNAHFEKNTSPSGQEMTEIAEKLNYDREVVRVWFCNKRQALK [H23S], for which the abundance fitness worked out at 0.036 ± 0.12. For KRRTSFTPQALEILNAHFEKNTMPSGQEMTEIAEKLNYDREVVRVWFCNKRQALK [H23M] the value was -0.275 ± 0.15; for KRRTSFTPQALEILNAHFEKNTEPSGQEMTEIAEKLNYDREVVRVWFCNKRQALK [H23E], 0.072 ± 0.11.

KRRTSFTPQALEILNAHFEKNTPPSGQEMTEIAEKLNYDREVVRVWFCNKRQALK [H23P]: the abundance fitness is -1.1 ± 0.41.

Turning to KRRTSFTPQALEILNAHFEKNTGPSGQEMTEIAEKLNYDREVVRVWFCNKRQALK [H23G], the abundance fitness was -0.217 ± 0.063. For KRRTSFTPQALEILNAHFEKYTHPSGQEMTEIAEKLNYDREVVRVWFCNKRQALK [N21Y] the value was -0.36 ± 0.13; for KRRTSFTPQALEILNAHFEKLTHPSGQEMTEIAEKLNYDREVVRVWFCNKRQALK [N21L], -0.551 ± 0.071; for KRRTSFTPQALEILNAHFEKMTHPSGQEMTEIAEKLNYDREVVRVWFCNKRQALK [N21M], -0.421 ± 0.14. KRRTSFTPQALEILNAHFEKATHPSGQEMTEIAEKLNYDREVVRVWFCNKRQALK [N21A]: the abundance fitness was -0.198 ± 0.08. For KRRTSFTPQALEILNAHFEKVTHPSGQEMTEIAEKLNYDREVVRVWFCNKRQALK [N21V] the value was -0.335 ± 0.068; for KRRTSFTPQALEILNAHFEKITHPSGQEMTEIAEKLNYDREVVRVWFCNKRQALK [N21I], -0.351 ± 0.18; for KRRTSFTPQALEILNAHFEKCTHPSGQEMTEIAEKLNYDREVVRVWFCNKRQALK [N21C], -0.008 ± 0.1. For KRRTSFTPQALEILNAHFEKTTHPSGQEMTEIAEKLNYDREVVRVWFCNKRQALK [N21T] the value was -0.173 ± 0.1; for KRRTSFTPQALEILNAHFEKSTHPSGQEMTEIAEKLNYDREVVRVWFCNKRQALK [N21S], -0.17 ± 0.08. Under KRRTSFTPQALEILNAHFEKETHPSGQEMTEIAEKLNYDREVVRVWFCNKRQALK [N21E] stands -0.016 ± 0.11; under KRRTSFTPQALEILNAHFEKQTHPSGQEMTEIAEKLNYDREVVRVWFCNKRQALK [N21Q], -0.044 ± 0.15. As for KRRTSFTPQALEILNAHFEKKTHPSGQEMTEIAEKLNYDREVVRVWFCNKRQALK [N21K], the abundance fitness is -0.303 ± 0.13. For KRRTSFTPQALEILNAHFEKRTHPSGQEMTEIAEKLNYDREVVRVWFCNKRQALK [N21R] the value was -0.274 ± 0.064; for KRRTSFTPQALEILNAHFEKDTHPSGQEMTEIAEKLNYDREVVRVWFCNKRQALK [N21D], -0.153 ± 0.092; for KRRTSFTPQALEILNAHFEKWTHPSGQEMTEIAEKLNYDREVVRVWFCNKRQALK [N21W], -0.67 ± 0.09. In the case of KRRTSFTPQALEILNAHFEKHTHPSGQEMTEIAEKLNYDREVVRVWFCNKRQALK [N21H], the abundance fitness was -0.182 ± 0.1. For KRRTSFTPQALEILNAHFEKFTHPSGQEMTEIAEKLNYDREVVRVWFCNKRQALK [N21F] the value was -0.659 ± 0.12; for KRRTSFTPQALEILNAHFEKPTHPSGQEMTEIAEKLNYDREVVRVWFCNKRQALK [N21P], -0.987 ± 0.33; for KRRTSFTPQALEILNAHFERNTHPSGQEMTEIAEKLNYDREVVRVWFCNKRQALK [K20R], -0.017 ± 0.061.

On to KRRTSFTPQALEILNAHFEFNTHPSGQEMTEIAEKLNYDREVVRVWFCNKRQALK [K20F], for which the abundance fitness was -0.421 ± 0.14. Under KRRTSFTPQALEILNAHFEVNTHPSGQEMTEIAEKLNYDREVVRVWFCNKRQALK [K20V] stands -0.131 ± 0.074. Under KRRTSFTPQALEILNAHFEQNTHPSGQEMTEIAEKLNYDREVVRVWFCNKRQALK [K20Q] stands -0.17 ± 0.13; under KRRTSFTPQALEILNAHFELNTHPSGQEMTEIAEKLNYDREVVRVWFCNKRQALK [K20L], -0.144 ± 0.074. For the variant KRRTSFTPQALEILNAHFEINTHPSGQEMTEIAEKLNYDREVVRVWFCNKRQALK [K20I], the abundance fitness is -0.245 ± 0.14. For KRRTSFTPQALEILNAHFETNTHPSGQEMTEIAEKLNYDREVVRVWFCNKRQALK [K20T] the value was -0.057 ± 0.088; for KRRTSFTPQALEILNAHFEGNTHPSGQEMTEIAEKLNYDREVVRVWFCNKRQALK [K20G], -0.129 ± 0.061.

Take KRRTSFTPQALEILNAHFEMNTHPSGQEMTEIAEKLNYDREVVRVWFCNKRQALK [K20M]: the abundance fitness is -0.02 ± 0.13. For KRRTSFTPQALEILNAHFEYNTHPSGQEMTEIAEKLNYDREVVRVWFCNKRQALK [K20Y] the value was -0.224 ± 0.12; for KRRTSFTPQALEILNAHFENNTHPSGQEMTEIAEKLNYDREVVRVWFCNKRQALK [K20N], -0.227 ± 0.18. For KRRTSFTPQALEILNAHFEPNTHPSGQEMTEIAEKLNYDREVVRVWFCNKRQALK [K20P], the abundance fitness is -0.936 ± 0.16.

For KRRTSFTPQALEILNAHFESNTHPSGQEMTEIAEKLNYDREVVRVWFCNKRQALK [K20S], the abundance fitness was -0.088 ± 0.075. Turning to KRRTSFTPQALEILNAHFEHNTHPSGQEMTEIAEKLNYDREVVRVWFCNKRQALK [K20H], the abundance fitness was -0.239 ± 0.16.

For KRRTSFTPQALEILNAHFEWNTHPSGQEMTEIAEKLNYDREVVRVWFCNKRQALK [K20W], the abundance fitness was -0.303 ± 0.084.
